biological target: EPHB2 (UniProt P29323); assay: phosphorylation enrichment, bacterial display (enrichment ratio); higher = better substrate or ligand; peptides without Tyr show the background
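Also: 11-residue human phosphosite peptides and single-mutation variants displayed on the E. coli surface, counted by deep sequencing, each peptide's frequency after selection divided by its frequency in the unselected input library; frequency after pTyr selection over input frequency; kinase dosed for 20-30% of maximal phosphorylation in three min.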

EPHB2, sequence (P29323 whole entry, looked up): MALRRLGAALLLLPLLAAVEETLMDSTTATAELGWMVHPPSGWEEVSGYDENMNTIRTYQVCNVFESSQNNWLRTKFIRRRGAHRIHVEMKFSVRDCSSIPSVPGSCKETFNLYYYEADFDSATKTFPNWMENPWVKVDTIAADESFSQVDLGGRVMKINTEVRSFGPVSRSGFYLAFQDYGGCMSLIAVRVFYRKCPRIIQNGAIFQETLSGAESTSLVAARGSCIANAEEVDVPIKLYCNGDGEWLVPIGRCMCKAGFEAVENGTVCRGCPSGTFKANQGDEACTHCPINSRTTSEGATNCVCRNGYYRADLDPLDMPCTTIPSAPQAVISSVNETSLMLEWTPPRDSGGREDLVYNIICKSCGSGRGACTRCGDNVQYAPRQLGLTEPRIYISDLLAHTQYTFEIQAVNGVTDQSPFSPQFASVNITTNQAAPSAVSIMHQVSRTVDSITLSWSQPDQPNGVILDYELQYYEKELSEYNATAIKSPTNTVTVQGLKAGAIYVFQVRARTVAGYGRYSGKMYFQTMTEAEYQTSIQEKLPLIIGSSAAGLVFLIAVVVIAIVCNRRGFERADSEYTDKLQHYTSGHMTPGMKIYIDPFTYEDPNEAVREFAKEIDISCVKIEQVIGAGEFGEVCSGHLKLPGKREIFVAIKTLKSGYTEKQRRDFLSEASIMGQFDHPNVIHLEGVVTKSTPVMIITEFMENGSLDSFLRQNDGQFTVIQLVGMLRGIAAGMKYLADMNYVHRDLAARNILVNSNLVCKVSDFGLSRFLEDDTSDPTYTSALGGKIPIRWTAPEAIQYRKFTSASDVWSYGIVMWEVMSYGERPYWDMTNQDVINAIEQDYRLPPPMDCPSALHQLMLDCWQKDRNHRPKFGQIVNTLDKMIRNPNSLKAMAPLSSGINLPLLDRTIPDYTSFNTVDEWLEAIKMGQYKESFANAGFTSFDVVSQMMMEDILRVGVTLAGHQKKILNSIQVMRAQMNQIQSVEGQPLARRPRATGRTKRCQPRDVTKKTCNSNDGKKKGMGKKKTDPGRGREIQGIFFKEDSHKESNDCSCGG

Sequence	phosphorylation enrichment
HHIDYYKETTN [FGFR1_Y654_K656E]	0.814
FTDPFYDFEIE [ZC3H18_Y372_A368T_YF]	0.867
HSPLRYTSILT [OR51B6_Y130_R125H]	0.602
IKNSGYISRFL [EIF2AK3_Y585_YF]	0.455
IKKLIYVHLVI [JAGN1_Y42]	0.59
FFCKFYNKSED [RYR1_Y4864_R4861C]	0.601
RLNCIYYKDQT [RS1_Y165_W163C]	0.639
ASNFNYFFHRE [KCNA1_Y413_V408A_YF]	0.556
RGRSTYYWPRP [GAGE12J_Y9]	0.707
EEGNPYYSSAR [MCCC2_Y520]	0.473
DIPIRYSIMGV [CDH4_Y205_T208M]	0.603
RQQEDYLLFKQ [RARRES1_Y159_YF]	0.978
LKGQVDILGRE [ASS1_Y359_Y359D]	0.696
QDRTFYERVRT [SPEN_Y633_S635R_YF]	0.42
KKYPDYIQSAM [SGMS2_Y59_I62S]	0.396
TTASRYLKVSD [MYOM2_Y871_N869S]	0.293
SYPHEYGSQEG [RBM10_Y48_R46H]	0.44

Sequence	phosphorylation enrichment
FAELVYTGFWH [ASS1_Y322]	2.59
RALLNYIASKF [GSTA3_Y74_I71L_YF]	0.624
IHHIDYYKKTT [FGFR1_Y653]	0.544
MARDIYQASYY [LTK_Y672_R673Q]	3.03
KFWREYILSLE [GPC3_Y299_YF]	0.666
KGELCYMHSRV [ABCD1_Y281_R280C]	0.581
SFMVRYNQPRV [GRIN2D_Y736_YF]	0.698
EMTAEYTCTRK [ACAD9_Y325_A326T]	0.607
IFHLSYIHNCE [PDE6B_Y227_L228I_YF]	0.71
PGAGHYEDTIL [ALK_Y1604]	0.597
LLKAGYHGVLR [TTPA_Y100]	0.562
KPRKLYTIKKP [BRD2_Y715_P714L]	0.444
GHNDVYISKHV [GRIN2A_Y1423_E1426K]	0.333
VASIFYTLVIP [OR8K3_Y277]	0.769
SHNELYYEAAE [VANGL1_Y344_E347A]	0.737
DVRQEYPGMIL [PLXND1_Y616]	0.517

biological target: FGFR1 (UniProt P11362); assay: as above
Sequence (P11362 whole entry, looked up): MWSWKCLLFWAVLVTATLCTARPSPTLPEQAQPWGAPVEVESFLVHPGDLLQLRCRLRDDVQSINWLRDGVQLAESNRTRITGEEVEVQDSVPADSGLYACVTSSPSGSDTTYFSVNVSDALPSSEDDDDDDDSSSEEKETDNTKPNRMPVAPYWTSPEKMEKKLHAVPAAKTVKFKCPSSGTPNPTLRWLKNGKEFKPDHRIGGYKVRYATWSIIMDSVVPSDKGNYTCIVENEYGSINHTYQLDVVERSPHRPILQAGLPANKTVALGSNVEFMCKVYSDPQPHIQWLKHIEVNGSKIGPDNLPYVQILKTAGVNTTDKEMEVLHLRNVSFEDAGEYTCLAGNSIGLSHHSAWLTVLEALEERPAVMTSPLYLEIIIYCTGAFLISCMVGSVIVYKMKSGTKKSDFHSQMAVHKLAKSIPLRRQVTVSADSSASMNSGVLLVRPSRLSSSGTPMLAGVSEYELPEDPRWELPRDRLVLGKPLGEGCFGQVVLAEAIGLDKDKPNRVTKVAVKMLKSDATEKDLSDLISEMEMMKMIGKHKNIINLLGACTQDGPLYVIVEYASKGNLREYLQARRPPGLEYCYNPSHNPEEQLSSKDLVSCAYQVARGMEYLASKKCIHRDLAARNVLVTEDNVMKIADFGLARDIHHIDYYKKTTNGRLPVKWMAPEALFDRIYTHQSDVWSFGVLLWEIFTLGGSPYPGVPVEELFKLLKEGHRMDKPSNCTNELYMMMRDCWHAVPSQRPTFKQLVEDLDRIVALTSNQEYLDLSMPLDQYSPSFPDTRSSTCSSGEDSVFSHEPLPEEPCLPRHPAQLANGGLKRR

Sequence	phosphorylation enrichment
HHIDYYKETTN [FGFR1_Y654_K656E]	1.09
FTDPFYDFEIE [ZC3H18_Y372_A368T_YF]	0.665
HSPLRYTSILT [OR51B6_Y130_R125H]	1.19
IKNSGYISRFL [EIF2AK3_Y585_YF]	0.367
IKKLIYVHLVI [JAGN1_Y42]	0.604
FFCKFYNKSED [RYR1_Y4864_R4861C]	0.536
RLNCIYYKDQT [RS1_Y165_W163C]	0.971
ASNFNYFFHRE [KCNA1_Y413_V408A_YF]	0.506
RGRSTYYWPRP [GAGE12J_Y9]	0.742
EEGNPYYSSAR [MCCC2_Y520]	0.468
DIPIRYSIMGV [CDH4_Y205_T208M]	0.481
RQQEDYLLFKQ [RARRES1_Y159_YF]	1.45
LKGQVDILGRE [ASS1_Y359_Y359D]	0.578
QDRTFYERVRT [SPEN_Y633_S635R_YF]	0.529
KKYPDYIQSAM [SGMS2_Y59_I62S]	0.484
TTASRYLKVSD [MYOM2_Y871_N869S]	0.366
SYPHEYGSQEG [RBM10_Y48_R46H]	0.54

Sequence	phosphorylation enrichment
FAELVYTGFWH [ASS1_Y322]	2.22
RALLNYIASKF [GSTA3_Y74_I71L_YF]	0.423
IHHIDYYKKTT [FGFR1_Y653]	0.473
MARDIYQASYY [LTK_Y672_R673Q]	1.41
KFWREYILSLE [GPC3_Y299_YF]	0.478
KGELCYMHSRV [ABCD1_Y281_R280C]	0.479
SFMVRYNQPRV [GRIN2D_Y736_YF]	0.473
EMTAEYTCTRK [ACAD9_Y325_A326T]	0.654
IFHLSYIHNCE [PDE6B_Y227_L228I_YF]	0.495
PGAGHYEDTIL [ALK_Y1604]	0.664
LLKAGYHGVLR [TTPA_Y100]	0.646
KPRKLYTIKKP [BRD2_Y715_P714L]	0.328
GHNDVYISKHV [GRIN2A_Y1423_E1426K]	0.323
VASIFYTLVIP [OR8K3_Y277]	1.72
SHNELYYEAAE [VANGL1_Y344_E347A]	2.63
DVRQEYPGMIL [PLXND1_Y616]	0.455
